The target of experiment [1] is complement component C9 (human) (UniProt P02748). The experiment can be described thus: MST; FH (6.67 µM) or C9 (15.15 µM) labelled with NT-647 RED-NHS; non-labelled CbiA diluted 1:2 from 76 to 0.0002 µM; fluid phase, 20% LED power, 80% MST power, 30 s, Monolith NT.115, room temperature, triplicate.
Experiment [2] concerns the target complement regulator Factor H (FH) (human) (UniProt P08603). The description is as above.
UniProt P08603, sequence (P08603 19-1231): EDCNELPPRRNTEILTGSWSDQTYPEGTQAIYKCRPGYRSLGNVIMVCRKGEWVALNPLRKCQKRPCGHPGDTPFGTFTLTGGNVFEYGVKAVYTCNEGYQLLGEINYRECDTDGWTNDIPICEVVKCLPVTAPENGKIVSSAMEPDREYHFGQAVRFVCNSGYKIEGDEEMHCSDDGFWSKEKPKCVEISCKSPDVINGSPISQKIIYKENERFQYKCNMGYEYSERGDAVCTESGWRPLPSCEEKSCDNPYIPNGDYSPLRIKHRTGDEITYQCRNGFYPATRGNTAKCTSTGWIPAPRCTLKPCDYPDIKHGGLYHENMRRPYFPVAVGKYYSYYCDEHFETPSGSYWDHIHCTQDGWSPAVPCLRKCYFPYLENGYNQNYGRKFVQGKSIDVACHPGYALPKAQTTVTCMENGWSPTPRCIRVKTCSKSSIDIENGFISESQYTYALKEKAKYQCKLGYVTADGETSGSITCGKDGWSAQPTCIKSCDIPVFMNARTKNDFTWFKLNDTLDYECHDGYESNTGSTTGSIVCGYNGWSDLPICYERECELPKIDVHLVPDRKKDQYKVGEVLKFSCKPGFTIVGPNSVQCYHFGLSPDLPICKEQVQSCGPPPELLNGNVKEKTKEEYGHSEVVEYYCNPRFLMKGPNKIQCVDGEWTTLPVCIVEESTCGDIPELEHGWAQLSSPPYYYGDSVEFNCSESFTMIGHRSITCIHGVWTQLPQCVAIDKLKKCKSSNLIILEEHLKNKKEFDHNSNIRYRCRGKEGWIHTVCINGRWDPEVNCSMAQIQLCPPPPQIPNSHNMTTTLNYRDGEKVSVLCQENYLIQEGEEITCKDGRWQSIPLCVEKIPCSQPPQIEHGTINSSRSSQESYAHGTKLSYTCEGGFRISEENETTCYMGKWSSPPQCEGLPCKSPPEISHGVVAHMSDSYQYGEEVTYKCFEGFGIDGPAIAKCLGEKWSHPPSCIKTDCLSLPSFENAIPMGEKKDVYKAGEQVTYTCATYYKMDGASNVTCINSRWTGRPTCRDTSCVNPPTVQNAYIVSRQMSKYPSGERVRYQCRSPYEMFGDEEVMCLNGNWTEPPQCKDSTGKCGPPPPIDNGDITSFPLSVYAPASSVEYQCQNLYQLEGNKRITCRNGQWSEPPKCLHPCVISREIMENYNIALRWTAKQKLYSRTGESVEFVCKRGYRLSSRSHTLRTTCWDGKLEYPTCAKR

UniProt P02748, sequence (P02748 22-559): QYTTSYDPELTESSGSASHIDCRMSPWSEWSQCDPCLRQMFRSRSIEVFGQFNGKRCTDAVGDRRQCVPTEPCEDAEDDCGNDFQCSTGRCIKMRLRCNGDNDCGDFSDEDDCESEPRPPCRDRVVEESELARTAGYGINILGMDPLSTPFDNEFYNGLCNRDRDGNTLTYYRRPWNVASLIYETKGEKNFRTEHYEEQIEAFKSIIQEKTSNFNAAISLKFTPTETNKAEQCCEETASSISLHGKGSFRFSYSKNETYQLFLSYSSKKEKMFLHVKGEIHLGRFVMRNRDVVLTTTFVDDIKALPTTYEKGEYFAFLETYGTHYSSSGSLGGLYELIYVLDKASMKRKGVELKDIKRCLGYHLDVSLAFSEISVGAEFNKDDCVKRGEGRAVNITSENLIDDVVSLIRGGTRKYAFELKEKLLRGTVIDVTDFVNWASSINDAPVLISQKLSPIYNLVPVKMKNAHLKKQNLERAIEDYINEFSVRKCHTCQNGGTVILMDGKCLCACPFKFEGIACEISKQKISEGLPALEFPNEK

For “CbiA (complement binding and inhibitory protein A) of B. miyamotoi HT31, His6-tagged recombinant protein (natural protein)”, the figures for the Kd in experiment [1] and in experiment [2] were 0.0524 µM and 6.59 µM, respectively.
